# Measured values taken from the RNAGym collection of RNA variant scans (doi:10.1073/pnas.2313332121).
# B1: TPR t1 (parent)
# chain: GACCAAUCUGCCCUCAGAGCUCGAGAACAUCUUCGGAUGCAGAGGAGGCAGGCUUCGGUGGCGCGAUAGCGCCAACGUCCUCAACCUCCAAUGCAUCCCACCACAUGAUGAUGCCUGAAGAGCCUUGGUUUUUUG
# Variants of: B1
# Experiment: polymerase ribozyme fitness, log enrichment relative to wild type (log ratio); higher = more active; in vitro selection for triplet polymerase activity
# Outline: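 One round of in vitro selection, in triplicate, was applied to PCR-built, transcribed mutant libraries of each subunit of a heterodimeric triplet polymerase ribozyme. The steps were annealing with a biotinylated primer, partner subunit and triplets, incubation frozen at −7 °C, gel excision of extended constructs, streptavidin-bead capture and RT-PCR. Fitness is the logarithm, base 2, of genotype enrichment over wild-type enrichment from inverse-variance-weighted replicate averages of Illumina-sequenced inputs and outputs, keeping genotypes with ≥10 input reads and ≥1 read per output.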
row,Variant,polymerase ribozyme fitness (log ratio)
1,A27C G60A G110A,-6.05
2,A27G G39U C73U G110C,-3.91
3,G25U U33A A68U A111C G127C,-6.82
4,A26G U38A G39U,-4.5
5,A27U A29G A83C,-2.59
6,A24U C40U,-6.96
7,A24C A50C G52U A111C,-6.93
8,A26G G42C U59C G113A,-5.32
9,A26G C70U C94G A103G G117C,-7.12
10,A26G G93A C114A,-3.14
11,A24G G42U G45A C72G C88A A121G U125C,-2.21
12,C28A A46U U54G C73U C82G A90G C123U,-4.12
13,A27G G135U,-2.21
14,A27U C72U A83U G127A,-4.42
15,A24G C70G C97A A121G,-5.13
16,A27U G44U C101G A111C,-7.22
17,A24U U116C G128U,-6.51
18,A24U C56U,-4.09
19,G25U G69U C102U A121U,-5.66
20,A27U G61A C86U,-2.19
21,A27U U55G C56A G61A C62G U112C G120U G128A U130C,-7.21
22,A27U A46U,-4.77
23,A26G G63C,-1.65
24,A27U A118G,-3.19

row,Variant,polymerase ribozyme fitness (log ratio)
1,A26G U130A,-3.31
2,A27G G51A U78C,-3.93
3,A27G C86U C94U,-1.98
4,A24U A27U C28U G36U A111U,-5.92
5,A27C U78A,-3.62
6,C28A G48U C53U G57C G60A U106C,-5.56
7,G23U C31G C102G C124A,-6.83
8,C28A C64U C70A C99U G110U G120C U132A,-7.34
9,A26C U112C,-4.51
10,A24U C94U A103U G110C G120C U131A,-5.54
11,A26U A37U G52U A90U U112C,-6.53
12,A27G C49U C123A,-1.76
13,C28A G71C,-5.69
14,A27U C56G A91G U131A U133G,-5.19
15,A24G G113A,-3.26
16,C28A G39U A83C C123U U133A,-4
17,A27U C53G A66G,-4.36
18,A27G C89A U92A C98A A111C,-6.08
19,A27U G60U C82A U125G,-3.48
20,A27C C28A A103U A105U U106G A111U G117U C123U,-5.3
21,A27C A50C A84C G120A,-3.23
22,G23A G69U G93U,-4.63
23,A24G C88G C123A U129A,-4.43
24,A24G A29U G44U C80A,-6.46

row,Variant,polymerase ribozyme fitness (log ratio)
1,A26U A74G C98U,-4.46
2,A27G C56A A74C U87A U112A,-0.205
3,A26U C62G C124A,-3.42
4,A27U G61U C102U U109G,-5.55
5,A26G A37U C123U U133A,-2.78
6,A27C A84G,-5
7,A24G G36U G93C U112A,-5.3
8,A24G G48A C64U U81C A108U G120C,-6
9,G25A A121C,-4.05
10,A26G A29G G39U,-3.81
11,A27U C94U U106A G110U,-2.09
12,A27U C97U U112A,-3.08
13,G25U C56G G63C A121U,-5.04
14,A26U C53U A74G G77U U125A,-4.77
15,A26U C70U U78C,-4.92
16,A26G G45A,-2.64
17,A27U C104U A111C G120C,-6.95
18,C28A G44U U78G G113A,-4.24
19,A26G G60U G77A A84C C102G U112A U116C,-5.99
20,A27G C28A G52U,-5.13
21,A26U G48A C72U,-3.67
22,A24G C82G A84U U106C,-2.06
23,G25U C53A G69U G107A U116G C123U,-7.07
24,A27C C124A,-0.901

row,Variant,polymerase ribozyme fitness (log ratio)
1,A27G C53G,-1.84
2,A24G G61U,-1.44
3,A27C G47U C73U G77U C86G C123A U126A,-4.61
4,A27U G51A A74C A83C,-7.03
5,A27U U59C,-3.53
6,A24G C62A,-2.63
7,A26G U30A C104G C115A,-5.53
8,A27C C72U C124A,-1.07
9,A26U C94U,-2.76
10,A27G C49G,-2.37
11,A27G C49U,-2.19
12,A26G C73A A74U U78A,-2.49
13,A24C A43U C49A C79A C98U C114U,-7.85
14,G25C G61U,-3.53
15,C28A C89U U112A,-1.62
16,A24G A119G A121U,1.12
17,A24G G69U,-0.509
18,A24G G69A,-4.71
19,A27C U54C,-2.56
20,A27U C49G U54C,-3.58
21,A26G U59A C62A G63A,-5.96
22,A24G C49A G65C C70A G113U,-6.47
23,G23U A26C A43U G63U G93A G117C,-6.53
24,G25C C97U C104A U109G,-6.31

row,Variant,polymerase ribozyme fitness (log ratio)
1,A26U G120U,-3.12
2,A27U A50U,-4.65
3,C28A A43U,-5.18
4,A24G C72U C88A G93U,-5.29
5,A27U C62U A74G,-7.73
6,A27G A41U,-2.67
7,A27U G117U C123G,-4.27
8,A27U G69U,-1.45
9,A24U A41G A43C U96A C102U A111U,-6.49
10,A24U G42U A43U C94G U112A U129A,-7.92
11,A27U G107A A121U G128U G135C,-3.88
12,A24C U32C C73A U96G A111U,-7.08
13,A27C G61C,-5.63
14,A24U A119G,-6.17
15,G25C C34G C70A C104G G110U U116G,-8.24
16,A27U A37G G48A C72G A83U U130A,-4.93
17,A27C G47A U54G G57U,-1.6
18,C28A C72U C123U,-3.7
19,A24U U32A G48C C70A A74U U81A A121G U125G,-7.22
20,A26U G60A C97U G110U,-5.7
21,A26U C49U C98U,-4.89
22,A26G C86U,-2.13
23,G23C G69A,-7.97
24,A27U A29G G63C G127C,-6.04

row,Variant,polymerase ribozyme fitness (log ratio)
1,A26G C56U,-1.28
2,C28A G61A G93A C123A,-3.78
3,A24C C40U G42A C73A A95U C101U G120A U130C,-7.09
4,A24G G110A U116G C124A,-6.51
5,G25C A119G,-6.74
6,A27C C76A,-5.92
7,A27G C88A,-2.13
8,A27G G51U G61A U92A,-6.49
9,A27U C56U,-3.04
10,A27U C88A,-4.4
11,G25A G61U,-3.17
12,G25C G35A G44C C114G,-5.95
13,A27G A41U G48A C88A,-5.84
14,A27C A95U C114U,-4.15
15,G25A C49A G57A C89U C97G C115G,-6.47
16,A27G C28U C56U U81A A83U A121C,-3.5
17,G25A C124G,-5.14
18,G25A C124U,-5.31
19,A24C A27G,-6.86
20,A24G A90U,-2.52
21,A24G U131A,-2.25
22,A26U C62U U78C G128C,-6.34
23,A27U C76U,-3.39
24,A26U A84C C102U C115A U133G,-6.15

row,Variant,polymerase ribozyme fitness (log ratio)
1,G23C A26G C124U,-5.18
2,A26G C94G A105C C123G,-5.27
3,A26G C49U C64U U87A,-3.25
4,A26G G44C,-2.38
5,A24U A46G G48A C70A A111G,-6.69
6,A27U G44A U129A,-6.51
7,A27C C56A C76G,-3.81
8,A26U C49U A66G A84C C124G,-4.9
9,A24G A46U C62G,-5.81
10,A26G A66C G113C U126G,-6.73
11,A27G C49A U96A,-3.34
12,A26G C28G C70G C85U C98U G107U A119G G122A,-6.27
13,G23A C73A A83G G120U,-6.38
14,G23A G51A A111G,-6
15,C28A G93C G110A,-0.645
16,A26U G69C,-4.28
17,G25A G71A C79G C115U,-7.59
18,A27U A90U,-5.37
19,A27U G60C C82G G120C G128U,-4.87
20,A26G U112G,-0.342
21,A26G C28A G113A,-4.3
22,A26G G45C G48U C88U,-5.02
23,A27U G60U G61C,-5.43
